Test results published in paper PMC5863373.

Legend:
[1] = biological target: human mitochondrial lysyl-tRNA synthetase with a C-terminal HA-tag (human) (UniProt Q15046); assay: AlphaScreen or HTRF; HTRF as in a1, Pol on mLysRS in the presence of 1 μM tRNA3^Lys
[2] = biological target: human mitochondrial lysyl-tRNA synthetase with a C-terminal HA-tag (human) (UniProt Q15046); assay: AlphaScreen or HTRF; HTRF; 1.5 nM mLysRS-HA or mLysRS∆C-HA (dimer) with rising His-tagged Pol (0.02 to 10 nM dimer), IN (0.5 to 125 nM dimer) or TF (1 to 1000 nM monomer); 10 mM Tris-HCl pH 7.5, 50 mM NaCl, 10 mM 2-mercaptoethanol, BSA 1 mg/ml, 1 h on ice; anti-H6-Eu3+ cryptate and anti-HA-XL665; apparent Kd
[3] = biological target: p38 (Homo sapiens) (UniProt Q13155); assay: SPR; settings: cited from earlier work
Chain of p38 (Homo sapiens) (Q13155 whole entry): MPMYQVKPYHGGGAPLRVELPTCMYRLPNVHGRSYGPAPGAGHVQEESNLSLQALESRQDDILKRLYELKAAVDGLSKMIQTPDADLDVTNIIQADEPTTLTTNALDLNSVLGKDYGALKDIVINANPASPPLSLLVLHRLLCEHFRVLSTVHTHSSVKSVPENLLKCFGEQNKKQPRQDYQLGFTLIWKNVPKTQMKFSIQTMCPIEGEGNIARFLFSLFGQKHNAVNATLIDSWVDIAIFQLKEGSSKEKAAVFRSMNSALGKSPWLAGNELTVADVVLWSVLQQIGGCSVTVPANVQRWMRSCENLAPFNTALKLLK

[4] = biological target: human mitochondrial lysyl-tRNA synthetase with a C-terminal HA-tag (human) (UniProt Q15046); assay: AlphaScreen or HTRF; HTRF; 1.5 nM mLysRS-HA or mLysRS∆C-HA (dimer) with rising His-tagged Pol (0.02 to 10 nM dimer), IN (0.5 to 125 nM dimer) or TF (1 to 1000 nM monomer); 10 mM Tris-HCl pH 7.5, 50 mM NaCl, 10 mM 2-mercaptoethanol, BSA 1 mg/ml, 1 h on ice; anti-H6-Eu3+ cryptate and anti-HA-XL665; apparent Kd; remark: listed apart in the source

Substance | Kd [1] [nM] | Kd [2] [nM] | Kd [3] [nM] | Kd [4] [nM]
HIV-1 Pol polyprotein (Pol region of GagPol) with a C-terminal His6 tag (natural protein) | 0.71 | 1.3 |  | 
mLysRS (from UniProt Q15046) |  |  | 0.3 | 
HIV-1 integrase with a C-terminal His6 tag (domain or fragment) |  | 11.8 |  | 12.9
